This data set addresses SARS-CoV-2 spike protein S1 subunit (SARS-CoV-2, UniProt P0DTC2 14-685). Briefly: QCM. The following applies: protein: commercial.

B1: RBD-1C (CoV2-RBD-1) (ssDNA)
DNA: CAGCACCGACCTTGTGCTTTGGGAGTGCTGGTCCAAGGGCGTTAATGGACA
modifications: 5'-amino-modifier C6
In the case of B1, the Ka was 1 10^5 M-1.

B2: RBD-1CM2 (ssDNA)
DNA: CAGCACCGACCTTGTGCTTTGGGAGTGCTGGTCCAAGGGCCTTGATGGACA
modifications: 5'-amino-modifier C6
Regarding B2, the Ka was 1.2 10^5 M-1.

B3: RBD-1CM1 (ssDNA)
DNA: CAGCACCGACCTTGTGCTTTGGGAGTGCTGGTCTAAGGGCGTTAATAGACA
modifications: 5'-amino-modifier C6
As for B3, the Ka was 1.2 10^5 M-1.

These data come from paper PMC9143595.
